Laboratory results from article PMC11851098 (Nucleic Acids Research, 2025).

Legend:
[1] = target: the molecule itself; experiment: SAXS
[2] = target: T1, Suv3 helicase (UniProt Q8IYB8 23-786, Alexa 647 label (site not stated) in the MST assay); experiment: MST
T1 sequence (looked up): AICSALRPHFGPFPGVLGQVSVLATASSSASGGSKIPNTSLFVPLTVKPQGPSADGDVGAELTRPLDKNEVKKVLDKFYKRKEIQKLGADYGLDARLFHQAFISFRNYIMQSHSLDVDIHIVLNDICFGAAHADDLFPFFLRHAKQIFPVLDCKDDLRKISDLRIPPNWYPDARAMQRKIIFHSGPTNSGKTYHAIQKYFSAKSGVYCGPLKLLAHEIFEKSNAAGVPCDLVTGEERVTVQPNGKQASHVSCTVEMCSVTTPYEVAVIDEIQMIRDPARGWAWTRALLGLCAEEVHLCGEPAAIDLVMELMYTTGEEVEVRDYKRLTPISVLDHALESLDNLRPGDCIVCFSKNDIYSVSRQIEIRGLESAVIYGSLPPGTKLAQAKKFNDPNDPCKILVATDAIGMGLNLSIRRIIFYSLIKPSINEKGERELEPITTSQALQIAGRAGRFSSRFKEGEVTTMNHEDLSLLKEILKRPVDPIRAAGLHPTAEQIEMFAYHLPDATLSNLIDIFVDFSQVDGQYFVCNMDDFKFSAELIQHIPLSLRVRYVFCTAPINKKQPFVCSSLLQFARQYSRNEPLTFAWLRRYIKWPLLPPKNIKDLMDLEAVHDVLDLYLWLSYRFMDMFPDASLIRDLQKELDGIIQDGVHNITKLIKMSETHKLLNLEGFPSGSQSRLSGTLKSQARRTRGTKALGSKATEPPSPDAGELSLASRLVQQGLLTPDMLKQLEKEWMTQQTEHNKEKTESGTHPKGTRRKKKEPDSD

Kd [2]: 386 ± 64 nM
B1: hPNPase P467S mutant, residues 46-783 (enzyme, human, UniProt Q8TCS8 46-783, looked up)
chain: AVAVDLGNRKLEISSGKLARFADGSAVVQSGDTAVMVTAVSKTKPSPSQFMPLVVDYRQKAAAAGRIPTNYLRREIGTSDKEILTSRIIDRSIRPLFPAGYFYDTQVLCNLLAVDGVNEPDVLAINGASVALSLSDIPWNGPVGAVRIGIIDGEYVVNPTRKEMSSSTLNLVVAGAPKSQIVMLEASAENILQQDFCHAIKVGVKYTQQIIQGIQQLVKETGVTKRTPQKLFTPSPEIVKYTHKLAMERLYAVFTDYEHDKVSRDEAVNKIRLDTEEQLKEKFPEADPYEIIESFNVVAKEVFRSIVLNEYKRCDGRDLTSLRNVSCEVDMFKTLHGSALFQRGQTQVLCTVTFDSLESGIKSDQVITAINGIKDKNFMLHYEFPPYATNEIGKVTGLNRRELGHGALAEKALYPVIPRDFSFTIRVTSEVLESNGSSSMASACGGSLALMDSGVPISSAVAGVAIGLVTKTDPEKGEIEDYRLLTDILGIEDYNGDMDFKIAGTNKGITALQADIKLPGIPIKIVMEAIQQASVAKKEILQIMNKTISKPRASRKENGPVVETVQVPLSKRAKFVGPGGYNLKKLQAETGVTISQVDEETFSVFAPTPSAMHEARDFITEICKDDQEQQLEFGAVYTATITEIRDTGVMVKLYPNMTAVLLHNTQLDQRKIKHPTALGLEVGQEIQVKYFGRDPADGRMRLSRKVLQSPATTVVRTLNDRSSIVMGEPISQSSSNSQ
stoichiometry N [1]: 3
